Measurements reported in patent US20240376151A1, “STAPLED PEPTIDES AND METHODS THEREOF” (FOG PHARMACEUTICALS, INC., priority 2022, published 2024).

Target: T1, beta-catenin (Homo sapiens, UniProt P35222)
T1 construct: made in house; host or cells: E. coli BL21 (DE3) pLysS
T1 sequence (P35222 134-665): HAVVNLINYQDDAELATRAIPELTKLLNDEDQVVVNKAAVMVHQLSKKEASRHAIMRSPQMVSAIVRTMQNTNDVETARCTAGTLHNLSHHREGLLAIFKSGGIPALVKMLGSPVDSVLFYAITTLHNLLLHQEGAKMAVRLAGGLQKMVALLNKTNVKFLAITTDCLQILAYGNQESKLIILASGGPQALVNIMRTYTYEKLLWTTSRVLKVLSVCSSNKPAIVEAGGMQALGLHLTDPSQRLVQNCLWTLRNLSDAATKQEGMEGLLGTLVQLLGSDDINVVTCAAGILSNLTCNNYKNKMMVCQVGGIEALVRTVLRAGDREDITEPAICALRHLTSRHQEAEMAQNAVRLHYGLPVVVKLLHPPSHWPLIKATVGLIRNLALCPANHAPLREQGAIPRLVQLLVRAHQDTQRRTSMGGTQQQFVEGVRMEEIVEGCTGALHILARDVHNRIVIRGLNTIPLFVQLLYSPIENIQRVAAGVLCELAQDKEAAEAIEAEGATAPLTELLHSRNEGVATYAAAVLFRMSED
Assay: Phage Library Screening with NGS, beta-catenin
Type: binding
Conditions: for Target Concentration 10 (phage screen NGS readout): beta-catenin target concentration 10; for Target Concentration 10 (phage screen NGS readout) / Target Concentration 30 (phage screen NGS readout) / Target Concentration 100 (phage screen NGS readout) / Target Concentration 300 (phage screen NGS readout): no competitor; for Target Concentration 30 (phage screen NGS readout): beta-catenin target concentration 30; for Target Concentration 100 (phage screen NGS readout): beta-catenin target concentration 100; for Target Concentration 300 (phage screen NGS readout): beta-catenin target concentration 300; for Target Concentration 1000 (phage screen NGS readout): beta-catenin target concentration 1000

DPAILDCSIAAIDCAYS
Target Concentration BLANK (phage screen NGS readout) (first column): 0 | Target Concentration BLANK (phage screen NGS readout) (fourth column): 0 | Target Concentration BLANK (phage screen NGS readout) (second column): 0 | Target Concentration BLANK (phage screen NGS readout) (third column): 0 | Target Concentration 10 (phage screen NGS readout): 0 | Target Concentration 30 (phage screen NGS readout): 0 | Target Concentration 100 (phage screen NGS readout): 16 | Target Concentration 300 (phage screen NGS readout): 42 | Target Concentration 1000 (phage screen NGS readout) (first 1000 column): 39 | Target Concentration 1000 (phage screen NGS readout) (second 1000 column): 29

DPAWSDCIWAAEHCQLI
Target Concentration BLANK (phage screen NGS readout) (first column): 0 | Target Concentration BLANK (phage screen NGS readout) (fourth column): 0 | Target Concentration BLANK (phage screen NGS readout) (second column): 1 | Target Concentration BLANK (phage screen NGS readout) (third column): 0 | Target Concentration 10 (phage screen NGS readout): 0 | Target Concentration 30 (phage screen NGS readout): 3 | Target Concentration 100 (phage screen NGS readout): 5 | Target Concentration 300 (phage screen NGS readout): 127 | Target Concentration 1000 (phage screen NGS readout) (first 1000 column): 109 | Target Concentration 1000 (phage screen NGS readout) (second 1000 column): 85

DPAMIQCQWAAEHCELI
Target Concentration BLANK (phage screen NGS readout) (first column): 0 | Target Concentration BLANK (phage screen NGS readout) (fourth column): 0 | Target Concentration BLANK (phage screen NGS readout) (second column): 1 | Target Concentration BLANK (phage screen NGS readout) (third column): 0 | Target Concentration 10 (phage screen NGS readout): 0 | Target Concentration 30 (phage screen NGS readout): 0 | Target Concentration 100 (phage screen NGS readout): 4 | Target Concentration 300 (phage screen NGS readout): 33 | Target Concentration 1000 (phage screen NGS readout) (first 1000 column): 19 | Target Concentration 1000 (phage screen NGS readout) (second 1000 column): 42

DPAEWACEHAALTCWDQ
Target Concentration BLANK (phage screen NGS readout) (first column): 1 | Target Concentration BLANK (phage screen NGS readout) (fourth column): 0 | Target Concentration BLANK (phage screen NGS readout) (second column): 4 | Target Concentration BLANK (phage screen NGS readout) (third column): 0 | Target Concentration 10 (phage screen NGS readout): 6 | Target Concentration 30 (phage screen NGS readout): 24 | Target Concentration 100 (phage screen NGS readout): 148 | Target Concentration 300 (phage screen NGS readout): 448 | Target Concentration 1000 (phage screen NGS readout) (first 1000 column): 431 | Target Concentration 1000 (phage screen NGS readout) (second 1000 column): 449

DPAAQRCTWAAIHCELI
Target Concentration BLANK (phage screen NGS readout) (first column): 0 | Target Concentration BLANK (phage screen NGS readout) (fourth column): 0 | Target Concentration BLANK (phage screen NGS readout) (second column): 0 | Target Concentration BLANK (phage screen NGS readout) (third column): 2 | Target Concentration 10 (phage screen NGS readout): 0 | Target Concentration 30 (phage screen NGS readout): 0 | Target Concentration 100 (phage screen NGS readout): 7 | Target Concentration 300 (phage screen NGS readout): 39 | Target Concentration 1000 (phage screen NGS readout) (first 1000 column): 25 | Target Concentration 1000 (phage screen NGS readout) (second 1000 column): 93

DPAVFECSLAAIDCLQI
Target Concentration BLANK (phage screen NGS readout) (first column): 0 | Target Concentration BLANK (phage screen NGS readout) (fourth column): 0 | Target Concentration BLANK (phage screen NGS readout) (second column): 0 | Target Concentration BLANK (phage screen NGS readout) (third column): 0 | Target Concentration 10 (phage screen NGS readout): 0 | Target Concentration 30 (phage screen NGS readout): 0 | Target Concentration 100 (phage screen NGS readout): 10 | Target Concentration 300 (phage screen NGS readout): 28 | Target Concentration 1000 (phage screen NGS readout) (first 1000 column): 10 | Target Concentration 1000 (phage screen NGS readout) (second 1000 column): 81

DPAQSDCDWAAEHCNLI
Target Concentration BLANK (phage screen NGS readout) (first column): 0 | Target Concentration BLANK (phage screen NGS readout) (fourth column): 0 | Target Concentration BLANK (phage screen NGS readout) (second column): 0 | Target Concentration BLANK (phage screen NGS readout) (third column): 0 | Target Concentration 10 (phage screen NGS readout): 0 | Target Concentration 30 (phage screen NGS readout): 1 | Target Concentration 100 (phage screen NGS readout): 0 | Target Concentration 300 (phage screen NGS readout): 23 | Target Concentration 1000 (phage screen NGS readout) (first 1000 column): 9 | Target Concentration 1000 (phage screen NGS readout) (second 1000 column): 57

DPAQFYCEHAALLCRWE
Target Concentration BLANK (phage screen NGS readout) (first column): 0 | Target Concentration BLANK (phage screen NGS readout) (fourth column): 0 | Target Concentration BLANK (phage screen NGS readout) (second column): 0 | Target Concentration BLANK (phage screen NGS readout) (third column): 0 | Target Concentration 10 (phage screen NGS readout): 0 | Target Concentration 30 (phage screen NGS readout): 0 | Target Concentration 100 (phage screen NGS readout): 5 | Target Concentration 300 (phage screen NGS readout): 11 | Target Concentration 1000 (phage screen NGS readout) (first 1000 column): 15 | Target Concentration 1000 (phage screen NGS readout) (second 1000 column): 11

DPAYWVCEHAALLCTDY
Target Concentration BLANK (phage screen NGS readout) (first column): 3 | Target Concentration BLANK (phage screen NGS readout) (fourth column): 0 | Target Concentration BLANK (phage screen NGS readout) (second column): 3 | Target Concentration BLANK (phage screen NGS readout) (third column): 1 | Target Concentration 10 (phage screen NGS readout): 5 | Target Concentration 30 (phage screen NGS readout): 18 | Target Concentration 100 (phage screen NGS readout): 85 | Target Concentration 300 (phage screen NGS readout): 337 | Target Concentration 1000 (phage screen NGS readout) (first 1000 column): 283 | Target Concentration 1000 (phage screen NGS readout) (second 1000 column): 227

DPAEVECMLAAHVCRAF
Target Concentration BLANK (phage screen NGS readout) (first column): 0 | Target Concentration BLANK (phage screen NGS readout) (fourth column): 0 | Target Concentration BLANK (phage screen NGS readout) (second column): 0 | Target Concentration BLANK (phage screen NGS readout) (third column): 0 | Target Concentration 10 (phage screen NGS readout): 8 | Target Concentration 30 (phage screen NGS readout): 26 | Target Concentration 100 (phage screen NGS readout): 67 | Target Concentration 300 (phage screen NGS readout): 109 | Target Concentration 1000 (phage screen NGS readout) (first 1000 column): 142 | Target Concentration 1000 (phage screen NGS readout) (second 1000 column): 130

DPAILNCHMAAWDCNFY
Target Concentration BLANK (phage screen NGS readout) (first column): 0 | Target Concentration BLANK (phage screen NGS readout) (fourth column): 0 | Target Concentration BLANK (phage screen NGS readout) (second column): 0 | Target Concentration BLANK (phage screen NGS readout) (third column): 1 | Target Concentration 10 (phage screen NGS readout): 0 | Target Concentration 30 (phage screen NGS readout): 7 | Target Concentration 100 (phage screen NGS readout): 14 | Target Concentration 300 (phage screen NGS readout): 57 | Target Concentration 1000 (phage screen NGS readout) (first 1000 column): 37 | Target Concentration 1000 (phage screen NGS readout) (second 1000 column): 59

DPAFLTCHIAAWACSEQ
Target Concentration BLANK (phage screen NGS readout) (first column): 0 | Target Concentration BLANK (phage screen NGS readout) (fourth column): 0 | Target Concentration BLANK (phage screen NGS readout) (second column): 2 | Target Concentration BLANK (phage screen NGS readout) (third column): 1 | Target Concentration 10 (phage screen NGS readout): 0 | Target Concentration 30 (phage screen NGS readout): 1 | Target Concentration 100 (phage screen NGS readout): 21 | Target Concentration 300 (phage screen NGS readout): 15 | Target Concentration 1000 (phage screen NGS readout) (first 1000 column): 52 | Target Concentration 1000 (phage screen NGS readout) (second 1000 column): 25

DPADWICEHAALTCQEF
Target Concentration BLANK (phage screen NGS readout) (first column): 0 | Target Concentration BLANK (phage screen NGS readout) (fourth column): 0 | Target Concentration BLANK (phage screen NGS readout) (second column): 1 | Target Concentration BLANK (phage screen NGS readout) (third column): 0 | Target Concentration 10 (phage screen NGS readout): 0 | Target Concentration 30 (phage screen NGS readout): 2 | Target Concentration 100 (phage screen NGS readout): 6 | Target Concentration 300 (phage screen NGS readout): 15 | Target Concentration 1000 (phage screen NGS readout) (first 1000 column): 12 | Target Concentration 1000 (phage screen NGS readout) (second 1000 column): 14

DPAILECYEAAFECQYM
Target Concentration BLANK (phage screen NGS readout) (first column): 0 | Target Concentration BLANK (phage screen NGS readout) (fourth column): 0 | Target Concentration BLANK (phage screen NGS readout) (second column): 0 | Target Concentration BLANK (phage screen NGS readout) (third column): 0 | Target Concentration 10 (phage screen NGS readout): 7 | Target Concentration 30 (phage screen NGS readout): 8 | Target Concentration 100 (phage screen NGS readout): 20 | Target Concentration 300 (phage screen NGS readout): 49 | Target Concentration 1000 (phage screen NGS readout) (first 1000 column): 41 | Target Concentration 1000 (phage screen NGS readout) (second 1000 column): 39

DPARMTCYEAAFRCQYY
Target Concentration BLANK (phage screen NGS readout) (first column): 0 | Target Concentration BLANK (phage screen NGS readout) (fourth column): 0 | Target Concentration BLANK (phage screen NGS readout) (second column): 0 | Target Concentration BLANK (phage screen NGS readout) (third column): 0 | Target Concentration 10 (phage screen NGS readout): 0 | Target Concentration 30 (phage screen NGS readout): 2 | Target Concentration 100 (phage screen NGS readout): 2 | Target Concentration 300 (phage screen NGS readout): 3 | Target Concentration 1000 (phage screen NGS readout) (first 1000 column): 11 | Target Concentration 1000 (phage screen NGS readout) (second 1000 column): 9
